Measurements reported in patent US20200079833A1 (AstraZeneca / MedImmune, published 2020).
Starred links: 1 amine or outer side, 2 acyl side, 3 side chain; linkers in the order of their positions; H or OH if unused. Non-standard residues stand in square brackets, D forms with d. Groups on a side chain read outwards from the residue. Primed or numbered codes have the meaning given here. No end group written: not given here. *: point of attachment. γGlu = O=C(O)[C@H](CCC(=O)[*:2])N[*:1]; Stearoyl = CCCCCCCCCCCCCCCCCC(=O)*; Palmitoyl = CCCCCCCCCCCCCCCC(=O)*; αMeF = C[C@](N)(Cc1ccccc1)C(=O)O; αMeK = C[C@](N)(CCCCN)C(=O)O; αMeS = C[C@](N)(CO)C(=O)O; PEG2′ = not defined here; Aib = CC(C)(N)C(=O)O

T1: glucose-dependent insulinotropic peptide (gastric inhibitory polypeptide) receptor (human, UniProt P48546 22-466)
T1 sequence (looked up): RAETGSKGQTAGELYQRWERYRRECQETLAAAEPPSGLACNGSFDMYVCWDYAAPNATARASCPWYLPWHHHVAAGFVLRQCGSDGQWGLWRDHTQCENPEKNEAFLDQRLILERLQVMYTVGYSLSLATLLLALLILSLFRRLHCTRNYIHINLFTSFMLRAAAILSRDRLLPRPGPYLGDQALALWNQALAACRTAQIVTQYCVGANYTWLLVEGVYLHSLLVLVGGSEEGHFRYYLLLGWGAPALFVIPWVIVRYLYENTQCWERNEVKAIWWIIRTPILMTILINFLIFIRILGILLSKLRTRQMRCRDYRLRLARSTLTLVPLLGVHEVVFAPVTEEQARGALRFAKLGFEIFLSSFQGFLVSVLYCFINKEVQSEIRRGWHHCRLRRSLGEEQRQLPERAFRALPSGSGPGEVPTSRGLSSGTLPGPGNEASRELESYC

B1: SEQ ID NO 71 (peptide)
peptide: H[Aib]EGS[αMeF]TSDV[αMeS]S[αMeF]LEGEAA[αMeK]E[αMeF]IA[αMeF]VV[αMeK]K([γGlu-Palmitoyl])G-NH2
modifications: N-terminus assumed
SMILES: CCCCCCCCCCCCCCCC(=O)N[C@@H](CCC(=O)NCCCC[C@H](NC(=O)[C@](C)(CCCCN)NC(=O)[C@@H](NC(=O)[C@@H](NC(=O)[C@](C)(Cc1ccccc1)NC(=O)[C@H](C)NC(=O)[C@@H](NC(=O)[C@](C)(Cc1ccccc1)NC(=O)[C@H](CCC(=O)O)NC(=O)[C@](C)(CCCCN)NC(=O)[C@H](C)NC(=O)[C@H](C)NC(=O)[C@H](CCC(=O)O)NC(=O)CNC(=O)[C@H](CCC(=O)O)NC(=O)[C@H](CC(C)C)NC(=O)[C@](C)(Cc1ccccc1)NC(=O)[C@H](CO)NC(=O)[C@](C)(CO)NC(=O)[C@@H](NC(=O)[C@H](CC(=O)O)NC(=O)[C@H](CO)NC(=O)[C@@H](NC(=O)[C@](C)(Cc1ccccc1)NC(=O)[C@H](CO)NC(=O)CNC(=O)[C@H](CCC(=O)O)NC(=O)C(C)(C)NC(=O)[C@@H](N)Cc1c[nH]cn1)[C@@H](C)O)C(C)C)[C@@H](C)CC)C(C)C)C(C)C)C(=O)NCC(N)=O)C(=O)O
B2: SEQ ID NO 72 (peptide)
peptide: H[Aib]EGS[αMeF]TSDV[αMeS]S[αMeF]LEGEAA[αMeK]E[αMeF]IA[αMeF]VVK([γGlu-Palmitoyl])GG-NH2
modifications: N-terminus assumed
SMILES: CCCCCCCCCCCCCCCC(=O)N[C@@H](CCC(=O)NCCCC[C@H](NC(=O)[C@@H](NC(=O)[C@@H](NC(=O)[C@](C)(Cc1ccccc1)NC(=O)[C@H](C)NC(=O)[C@@H](NC(=O)[C@](C)(Cc1ccccc1)NC(=O)[C@H](CCC(=O)O)NC(=O)[C@](C)(CCCCN)NC(=O)[C@H](C)NC(=O)[C@H](C)NC(=O)[C@H](CCC(=O)O)NC(=O)CNC(=O)[C@H](CCC(=O)O)NC(=O)[C@H](CC(C)C)NC(=O)[C@](C)(Cc1ccccc1)NC(=O)[C@H](CO)NC(=O)[C@](C)(CO)NC(=O)[C@@H](NC(=O)[C@H](CC(=O)O)NC(=O)[C@H](CO)NC(=O)[C@@H](NC(=O)[C@](C)(Cc1ccccc1)NC(=O)[C@H](CO)NC(=O)CNC(=O)[C@H](CCC(=O)O)NC(=O)C(C)(C)NC(=O)[C@@H](N)Cc1c[nH]cn1)[C@@H](C)O)C(C)C)[C@@H](C)CC)C(C)C)C(C)C)C(=O)NCC(=O)NCC(N)=O)C(=O)O
B3: SEQ ID NO 73 (peptide)
peptide: H[Aib]EGS[αMeF]TSDV[αMeS]S[αMeF]LEGEAA[αMeK]E[αMeF]IA[αMeF]VK([γGlu-Palmitoyl])[αMeK]GG-NH2
modifications: N-terminus assumed
SMILES: CCCCCCCCCCCCCCCC(=O)N[C@@H](CCC(=O)NCCCC[C@H](NC(=O)[C@@H](NC(=O)[C@](C)(Cc1ccccc1)NC(=O)[C@H](C)NC(=O)[C@@H](NC(=O)[C@](C)(Cc1ccccc1)NC(=O)[C@H](CCC(=O)O)NC(=O)[C@](C)(CCCCN)NC(=O)[C@H](C)NC(=O)[C@H](C)NC(=O)[C@H](CCC(=O)O)NC(=O)CNC(=O)[C@H](CCC(=O)O)NC(=O)[C@H](CC(C)C)NC(=O)[C@](C)(Cc1ccccc1)NC(=O)[C@H](CO)NC(=O)[C@](C)(CO)NC(=O)[C@@H](NC(=O)[C@H](CC(=O)O)NC(=O)[C@H](CO)NC(=O)[C@@H](NC(=O)[C@](C)(Cc1ccccc1)NC(=O)[C@H](CO)NC(=O)CNC(=O)[C@H](CCC(=O)O)NC(=O)C(C)(C)NC(=O)[C@@H](N)Cc1c[nH]cn1)[C@@H](C)O)C(C)C)[C@@H](C)CC)C(C)C)C(=O)N[C@@](C)(CCCCN)C(=O)NCC(=O)NCC(N)=O)C(=O)O
B4: SEQ ID NO 9 (peptide)
peptide: H[Aib]EGS[αMeF]SSEVSS[αMeF]LEGEAA[αMeK]E[αMeF]IA[αMeF]VV[αMeK]GG-NH2
modifications: N-terminus assumed
SMILES: CC[C@H](C)[C@H](NC(=O)[C@](C)(Cc1ccccc1)NC(=O)[C@H](CCC(=O)O)NC(=O)[C@](C)(CCCCN)NC(=O)[C@H](C)NC(=O)[C@H](C)NC(=O)[C@H](CCC(=O)O)NC(=O)CNC(=O)[C@H](CCC(=O)O)NC(=O)[C@H](CC(C)C)NC(=O)[C@](C)(Cc1ccccc1)NC(=O)[C@H](CO)NC(=O)[C@H](CO)NC(=O)[C@@H](NC(=O)[C@H](CCC(=O)O)NC(=O)[C@H](CO)NC(=O)[C@H](CO)NC(=O)[C@](C)(Cc1ccccc1)NC(=O)[C@H](CO)NC(=O)CNC(=O)[C@H](CCC(=O)O)NC(=O)C(C)(C)NC(=O)[C@@H](N)Cc1c[nH]cn1)C(C)C)C(=O)N[C@@H](C)C(=O)N[C@@](C)(Cc1ccccc1)C(=O)N[C@H](C(=O)N[C@H](C(=O)N[C@@](C)(CCCCN)C(=O)NCC(=O)NCC(N)=O)C(C)C)C(C)C
B5: SEQ ID NO 70 (peptide)
peptide: H[Aib]EGS[αMeF]TSDV[αMeS]S[αMeF]LEGEAA[αMeK]E[αMeF]IA[αMeF]VV[αMeK]GK([γGlu-Palmitoyl])-NH2
modifications: N-terminus assumed
SMILES: CCCCCCCCCCCCCCCC(=O)N[C@@H](CCC(=O)NCCCC[C@H](NC(=O)CNC(=O)[C@](C)(CCCCN)NC(=O)[C@@H](NC(=O)[C@@H](NC(=O)[C@](C)(Cc1ccccc1)NC(=O)[C@H](C)NC(=O)[C@@H](NC(=O)[C@](C)(Cc1ccccc1)NC(=O)[C@H](CCC(=O)O)NC(=O)[C@](C)(CCCCN)NC(=O)[C@H](C)NC(=O)[C@H](C)NC(=O)[C@H](CCC(=O)O)NC(=O)CNC(=O)[C@H](CCC(=O)O)NC(=O)[C@H](CC(C)C)NC(=O)[C@](C)(Cc1ccccc1)NC(=O)[C@H](CO)NC(=O)[C@](C)(CO)NC(=O)[C@@H](NC(=O)[C@H](CC(=O)O)NC(=O)[C@H](CO)NC(=O)[C@@H](NC(=O)[C@](C)(Cc1ccccc1)NC(=O)[C@H](CO)NC(=O)CNC(=O)[C@H](CCC(=O)O)NC(=O)C(C)(C)NC(=O)[C@@H](N)Cc1c[nH]cn1)[C@@H](C)O)C(C)C)[C@@H](C)CC)C(C)C)C(C)C)C(N)=O)C(=O)O

molecular target: GLP-1 receptor (human, UniProt P43220 24-463); assay: cell-based or functional assay

Primary assay EC50 (cAMP), Mean pM GLP-1R [pM]	Primary assay EC50 (cAMP), n1 [nM]	Primary assay EC50 (cAMP), n2 [nM]	Binder
7.1	0.0062	0.008	B1
49	0.046	0.052	B2
146	0.13	0.16	B3
1200	1.2	1.2	B4
53	0.0661	0.0399	H[Aib]EGS[αMeF]TSDV[αMeS]S[αMeF]LEGEAAAEFIK([PEG2′-PEG2′-γGlu-Stearoyl])WVVEGG-NH2 [SEQ ID NO 69]
18.8	0.0221	0.0155	H[Aib]EGS[αMeF]TSDV[αMeS]S[αMeF]LEGEAA[αMeK]EFIK([PEG2′-PEG2′-γGlu-Stearoyl])WVVEGG-NH2 [SEQ ID NO 68]
150	0.203	0.0979	H[Aib]EGS[αMeF]TSDV[αMeS]S[αMeF]LEGEAAEEFIK([PEG2′-PEG2′-γGlu-Stearoyl])WVVEGG-NH2 [SEQ ID NO 66]
83	0.074	0.092	B5
60.1	0.0721	0.048	H[Aib]EGS[αMeF]TSDV[αMeS]S[αMeF]LEGEAA[Aib]EFIK([PEG2′-PEG2′-γGlu-Stearoyl])WVVEGG-NH2 [SEQ ID NO 67]

molecular target: glucagon receptor (human, UniProt P47871 26-477); assay: cell-based or functional assay
Sequence (P47871 26-477): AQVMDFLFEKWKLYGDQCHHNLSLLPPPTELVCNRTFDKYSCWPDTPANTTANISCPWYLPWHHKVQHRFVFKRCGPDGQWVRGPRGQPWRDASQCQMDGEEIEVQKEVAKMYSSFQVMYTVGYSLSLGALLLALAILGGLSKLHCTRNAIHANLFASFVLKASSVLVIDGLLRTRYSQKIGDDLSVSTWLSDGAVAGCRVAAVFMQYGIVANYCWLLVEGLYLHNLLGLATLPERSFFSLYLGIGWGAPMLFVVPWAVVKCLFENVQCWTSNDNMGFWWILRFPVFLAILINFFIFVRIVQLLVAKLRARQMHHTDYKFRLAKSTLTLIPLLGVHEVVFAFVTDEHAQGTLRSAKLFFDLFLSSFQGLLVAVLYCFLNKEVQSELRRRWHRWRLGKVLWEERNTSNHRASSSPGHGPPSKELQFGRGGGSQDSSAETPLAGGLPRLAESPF

Primary assay EC50 (cAMP), n1 [nM]	Primary assay EC50 (cAMP), n2 [nM]	Binder
27	27	B1
28	28	B2
28	28	B3
29	29	B4
25.5	25.5	H[Aib]EGS[αMeF]TSDV[αMeS]S[αMeF]LEGEAAAEFIK([PEG2′-PEG2′-γGlu-Stearoyl])WVVEGG-NH2 [SEQ ID NO 69]
25	25	H[Aib]EGS[αMeF]TSDV[αMeS]S[αMeF]LEGEAA[αMeK]EFIK([PEG2′-PEG2′-γGlu-Stearoyl])WVVEGG-NH2 [SEQ ID NO 68]
25.1	25.1	H[Aib]EGS[αMeF]TSDV[αMeS]S[αMeF]LEGEAAEEFIK([PEG2′-PEG2′-γGlu-Stearoyl])WVVEGG-NH2 [SEQ ID NO 66]
27	27	B5
25.4	25.4	H[Aib]EGS[αMeF]TSDV[αMeS]S[αMeF]LEGEAA[Aib]EFIK([PEG2′-PEG2′-γGlu-Stearoyl])WVVEGG-NH2 [SEQ ID NO 67]

molecular target: T1, glucose-dependent insulinotropic …; assay: cell-based or functional assay

Primary assay EC50 (cAMP), n1 [nM]	Primary assay EC50 (cAMP), n2 [nM]	Binder
27	27	B1
28	28	B2
28	28	B3
29	29	B4
25.5	25.5	H[Aib]EGS[αMeF]TSDV[αMeS]S[αMeF]LEGEAAAEFIK([PEG2′-PEG2′-γGlu-Stearoyl])WVVEGG-NH2 [SEQ ID NO 69]
25	25	H[Aib]EGS[αMeF]TSDV[αMeS]S[αMeF]LEGEAA[αMeK]EFIK([PEG2′-PEG2′-γGlu-Stearoyl])WVVEGG-NH2 [SEQ ID NO 68]
25.1	25.1	H[Aib]EGS[αMeF]TSDV[αMeS]S[αMeF]LEGEAAEEFIK([PEG2′-PEG2′-γGlu-Stearoyl])WVVEGG-NH2 [SEQ ID NO 66]
27	27	B5
25.4	25.4	H[Aib]EGS[αMeF]TSDV[αMeS]S[αMeF]LEGEAA[Aib]EFIK([PEG2′-PEG2′-γGlu-Stearoyl])WVVEGG-NH2 [SEQ ID NO 67]
